From US20110217237A1 (AbbVie / Abbott, published 2011)
Where two headings read alike, the source gives them in different places.

Key:
[1] = target: T1, mouse DLL4 on cells (mouse, UniProt Q9JI71 27-686); test: FACS, DLL4 cells
T1 construct: whole, on cells; also called mouse DLL4-293G; mu DLL4 cells

[2] = target: T2, human DLL4, full length, on cells (human, UniProt Q9NR61 27-685); test: FACS, DLL4 cells
T2 construct: also called huDLL4 cells; human DLL4-293G

[3] = target: T2, human DLL4, full length, on cells; test: cell-based or functional assay
[4] = target: T3, mouse DLL4 extracellular domain (mouse, UniProt Q9JI71 27-532); test: SPR (Biacore)
T3 construct: extracellular domain; also called muDLL4 ECD; murine DLL4
Procedure: (§1) The BIACORE® surface plasmon resonance assay (Biacore, Inc., Piscataway, N.J., US) determines the affinity of antibodies with kinetic measurements of on-rate and off-rate constants. Binding of DLL4 antibodies to a purified recombinant DLL4 extracellular domain (ECD) was determined by surface plasmon resonance-based measurements with a Biacore® instrument (either a Biacore 2000, Biacore 3000, or Biacore T100; GE Healthcare, Piscataway, N.J., US) using running buffer HBS-EPB (10 mM HEPES [pH 7.4], 150 mM NaCl, 3 mM EDTA, 0.1 mg/ml BSA and 0.005% surfactant P20) at 25° C. For example, approximately 9000 RU of goat anti-human Fc specific polyclonal antibody (Thermo Fisher Scientific Inc., Rockford, Ill., US) diluted in 10 mM sodium acetate (pH 4.5) is directly immobilized across a CMS research grade biosensor chip using a standard amine coupling kit according to manufacturer's instructions and procedures at 25 μg/ml. Unreacted moieties on the biosensor surface were blocked with ethanolamine. For kinetic analysis, rate equations derived from the 1:1 Langmuir binding model were fitted simultaneously to multiple antigen injections (using global fit analysis) with the use of Scrubber 2 (BioLogic Software), Biacore Biaevaluation 4.0.1 software or Biacore T100 Evaluation software. Purified antibodies were diluted in running buffer for capture across goat anti-human Fc reaction surfaces. Antibodies to be captured as a ligand (1 μg/ml) were injected over reaction matrices at a flow rate of 10 μl/min. During the assay, all measurements were referenced against the capture surface alone (i.e., with no captured anti-DLL4 antibody). […] The equilibrium dissociation constant KD (M) of the reaction between antibodies and the target antigen was then calculated from the kinetic rate constants by the following formula: KD=Koff/Kₒₙ. Binding was recorded as a function of time and kinetic rate constants were calculated.

[5] = target: T4, human DLL4 extracellular domain (human, UniProt Q9NR61 27-529); test: SPR (Biacore)
T4 construct: purified recombinant ECD; biotin-labelled or 6xHis-tagged depending on the assay; also called huDLL4 ECD; hu DLL4 ECD
Procedure: as §1

[6] = target: T5, cynomolgus monkey DLL4 extracellular domain (cynomolgus monkey); test: binding ELISA
T5 construct: extracellular domain; also called cynoDLL4 ECD; Cyno DLL4
Procedure: (§2) Plates were then washed 3 times. 100 μl/well of recombinant rat/human chimeric or recombinant human anti-DLL4 antibodies were then added to the plate (0.00164-27 nM, 4-fold serial dilution in ELISA buffer=PBST, 10% Superblock (Pierce #37515)) for 1 hour at 25° C. with shaking and then washed again 3 times. Plates were incubated with goat anti-human HRP (Pierce #31412) (1:40,000 dilution in ELISA buffer, 100 μl/well) for 1 hour at 25° C. with shaking, then washed 3 times. After the final wash, plates were incubated with 100 μl/well ELISA substrate (Sigma #T8665). The reaction was stopped after 8 minutes at 25° C. with 100 μl/well 1N HCl and the absorbance was read at 450 nm. Data were analyzed using Graphpad Prism software, and EC50 values were reported.
(§3) Purified variants were further characterized for their affinities for human, murine and cynomolgus DLL4 by binding ELISA (Example 1.2, Method 2), by Biacore (Example 1.1), and by Flow Cytometry (FACS). […] The humanized variants were then tested for their functionality with human and murine DLL4 by competition ELISA (Example 1.3) and by Notch reporter assay (Example 1.6).

[7] = target: T3, mouse DLL4 extracellular domain; test: binding ELISA
Procedure: as §2, §3

[8] = target: T4, human DLL4 extracellular domain; test: binding ELISA
Procedure: as §2, §3

[9] = target: T5, cynomolgus monkey DLL4 extracellular …; test: SPR (Biacore)
In short: (§4)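 Purified anti-DLL4 antibodies (1 μg/ml) captured on immobilized goat anti-human Fc, with DLL4 ECD injected as analyte; HBS-EPB running buffer (pH 7.4), 25° C, referenced against capture-only surface. On/off rates from global 1:1 Langmuir fit; KD = Koff/Kon.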

[10] = target: T4, human DLL4 extracellular domain; test: SPR (Biacore); remark: listed apart in the source
In short: as §4

[11] = target: T3, mouse DLL4 extracellular domain; test: competition ELISA vs Notch-1
Procedure: (§5) Plates were then washed 3 times with wash buffer (PBS, 0.05% Tween-20) and blocked with 200 μl/well blocking buffer (D-PBS, 1% BSA, 1 mM CaCl₂, 0.05% Tween-20) for 1 hour at 25° C. While blocking, biotin labeled DLL4 extracellular domain (14 nM) was mixed with antibody (30 pM-66 nM, 3-fold serial dilution in blocking buffer) for 1 hour at 25° C. with shaking. Assay plates were washed after blocking, and incubated with DLL4/antibody mixtures (100 μl/well, 1 hour at 25° C. with shaking). Plates were washed again and 100 μl/well streptavidin conjugated with HRP (Fitzgerald #65R-S104PHRPx, diluted 1:5,000 in blocking buffer) was added for 1 hour at 25° C. with shaking. After a final wash, plates were developed using 100 μl/well substrate (TMB Sigma #T8665), and the reaction was stopped using 100 μl/well 1N HCl, and the absorbance was read at 450 nm. Data were analyzed using Graphpad Prism software and IC₅₀ values were reported as the concentration of antibody to achieve 50% reduction of DLL4 bound to Notch1.
as §3

[12] = target: T4, human DLL4 extracellular domain; test: competition ELISA vs Notch-1
Procedure: as §5, §3

[13] = target: T6, rat DLL4 extracellular domain (rat, UniProt D3ZHH1 28-530); test: SPR (Biacore)
T6 construct: extracellular domain; also called ratDLL4 ECD
In short: as §4

[14] = target: T3, mouse DLL4 extracellular domain; test: SPR (Biacore); remark: listed apart in the source
In short: as §4

T1 sequence (Q9JI71 27-686): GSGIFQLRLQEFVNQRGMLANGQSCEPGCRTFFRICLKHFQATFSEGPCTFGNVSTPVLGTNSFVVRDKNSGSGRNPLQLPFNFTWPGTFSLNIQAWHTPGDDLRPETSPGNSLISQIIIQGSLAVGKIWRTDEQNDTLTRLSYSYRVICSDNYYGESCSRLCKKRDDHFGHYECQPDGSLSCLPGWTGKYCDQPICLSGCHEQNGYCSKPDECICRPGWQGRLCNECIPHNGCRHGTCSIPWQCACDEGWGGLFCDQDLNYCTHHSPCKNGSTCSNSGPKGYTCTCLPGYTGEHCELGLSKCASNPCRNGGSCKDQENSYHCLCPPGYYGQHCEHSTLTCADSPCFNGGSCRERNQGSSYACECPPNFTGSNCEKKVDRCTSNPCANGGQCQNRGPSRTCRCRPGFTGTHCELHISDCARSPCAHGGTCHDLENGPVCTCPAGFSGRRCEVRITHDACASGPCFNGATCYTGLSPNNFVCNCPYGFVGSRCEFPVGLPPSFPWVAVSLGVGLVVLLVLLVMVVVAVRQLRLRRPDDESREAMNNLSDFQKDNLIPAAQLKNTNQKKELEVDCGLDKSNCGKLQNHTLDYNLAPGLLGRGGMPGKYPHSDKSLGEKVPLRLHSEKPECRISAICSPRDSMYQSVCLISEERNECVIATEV
T3 sequence (Q9JI71 27-532): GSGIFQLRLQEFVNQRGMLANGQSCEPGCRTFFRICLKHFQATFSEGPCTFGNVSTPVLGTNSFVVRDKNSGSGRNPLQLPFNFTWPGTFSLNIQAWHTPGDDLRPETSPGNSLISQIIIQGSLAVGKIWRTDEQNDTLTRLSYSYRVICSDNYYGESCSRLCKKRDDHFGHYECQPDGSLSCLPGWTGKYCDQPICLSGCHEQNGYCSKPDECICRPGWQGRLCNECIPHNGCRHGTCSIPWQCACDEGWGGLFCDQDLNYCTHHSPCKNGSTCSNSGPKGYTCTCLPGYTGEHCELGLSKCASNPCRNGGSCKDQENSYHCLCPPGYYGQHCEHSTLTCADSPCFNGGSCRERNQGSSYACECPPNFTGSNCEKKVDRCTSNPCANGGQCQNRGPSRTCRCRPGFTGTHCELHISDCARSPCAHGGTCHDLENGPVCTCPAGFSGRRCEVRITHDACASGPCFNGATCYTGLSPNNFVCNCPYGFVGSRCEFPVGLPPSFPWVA
T4 sequence (Q9NR61 27-529 limits assumed): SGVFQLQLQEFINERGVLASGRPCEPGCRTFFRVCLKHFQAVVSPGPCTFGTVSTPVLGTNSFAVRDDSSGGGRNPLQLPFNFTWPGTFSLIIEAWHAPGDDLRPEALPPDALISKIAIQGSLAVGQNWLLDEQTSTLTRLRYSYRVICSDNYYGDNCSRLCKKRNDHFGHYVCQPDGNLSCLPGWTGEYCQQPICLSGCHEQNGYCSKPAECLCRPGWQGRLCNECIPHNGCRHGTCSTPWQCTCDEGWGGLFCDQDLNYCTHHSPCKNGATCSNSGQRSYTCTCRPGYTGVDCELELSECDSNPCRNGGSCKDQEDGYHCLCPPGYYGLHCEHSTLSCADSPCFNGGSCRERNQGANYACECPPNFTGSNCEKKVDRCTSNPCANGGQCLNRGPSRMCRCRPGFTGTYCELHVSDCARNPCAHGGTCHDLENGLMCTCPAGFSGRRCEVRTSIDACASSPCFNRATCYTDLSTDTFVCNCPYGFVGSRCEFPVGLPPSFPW
T2 sequence (Q9NR61 27-685 limits assumed): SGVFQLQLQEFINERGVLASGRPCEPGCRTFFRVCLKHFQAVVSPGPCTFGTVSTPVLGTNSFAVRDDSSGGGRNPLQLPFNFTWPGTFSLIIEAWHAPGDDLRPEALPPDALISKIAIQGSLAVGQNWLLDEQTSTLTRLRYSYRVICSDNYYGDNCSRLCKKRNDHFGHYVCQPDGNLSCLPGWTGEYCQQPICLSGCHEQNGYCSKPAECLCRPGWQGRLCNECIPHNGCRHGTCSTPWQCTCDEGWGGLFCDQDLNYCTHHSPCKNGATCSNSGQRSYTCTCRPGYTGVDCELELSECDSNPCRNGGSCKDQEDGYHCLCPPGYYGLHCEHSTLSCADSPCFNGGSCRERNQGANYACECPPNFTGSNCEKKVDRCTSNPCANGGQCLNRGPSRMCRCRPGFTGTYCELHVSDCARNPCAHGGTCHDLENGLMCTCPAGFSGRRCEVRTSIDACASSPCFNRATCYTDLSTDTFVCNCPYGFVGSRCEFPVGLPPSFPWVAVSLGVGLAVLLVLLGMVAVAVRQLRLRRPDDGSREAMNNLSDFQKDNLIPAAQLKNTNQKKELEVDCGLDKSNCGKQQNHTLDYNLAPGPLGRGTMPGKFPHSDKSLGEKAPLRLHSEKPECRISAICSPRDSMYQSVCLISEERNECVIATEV
T6 sequence (D3ZHH1 28-530): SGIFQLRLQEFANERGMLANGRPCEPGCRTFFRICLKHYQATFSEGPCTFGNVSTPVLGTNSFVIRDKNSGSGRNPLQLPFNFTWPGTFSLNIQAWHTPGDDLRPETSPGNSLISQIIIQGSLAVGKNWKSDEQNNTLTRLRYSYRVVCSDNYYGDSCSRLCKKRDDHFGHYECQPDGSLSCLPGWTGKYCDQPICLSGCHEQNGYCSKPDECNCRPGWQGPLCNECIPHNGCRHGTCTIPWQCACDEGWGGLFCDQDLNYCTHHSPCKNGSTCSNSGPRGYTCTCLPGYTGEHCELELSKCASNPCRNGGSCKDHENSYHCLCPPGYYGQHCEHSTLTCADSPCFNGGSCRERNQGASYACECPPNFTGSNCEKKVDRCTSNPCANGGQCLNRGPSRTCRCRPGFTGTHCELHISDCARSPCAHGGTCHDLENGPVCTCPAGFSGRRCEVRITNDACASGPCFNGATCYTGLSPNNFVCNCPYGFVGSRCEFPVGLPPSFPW

| Binder | EC50 [1] | EC50 [2] | Reporter Assay (EC50, nM) [3] | Kd [4] | Kd [5] | EC50 [6] | EC50 [7] | EC50 [8] | Kd [9] | koff [9] | kon [9] | Kd [10] | koff [10] | kon [10] | IC50 [11] | IC50 [12] | binding result [13] | Kd [14] | koff [14] | kon [14] |
| --- | --- | --- | --- | --- | --- | --- | --- | --- | --- | --- | --- | --- | --- | --- | --- | --- | --- | --- | --- | --- |
| h1A11.1 (antibody, V domains shown, humanized IgG; also called hu1A11.1; VH.1/VL.1 1A11) VH: EVQLVESGGGLVQPGGSLRLSCAASGFTFSNFPMAWVRQAPGKGLEWVATISSSDGTTYYRDSVKGRFTISRDNAKNSLYLQMNSLRAEDTAVYYCARGYYNSPFAYWGQGTLVTVSS VL: DIQMTQSPSSLSASVGDRVTITCRASEDIYSNLAWYQQKPGKAPKLLIYDTNNLADGVPSRFSGSGSGTDFTLTISSLQPEDFATYYCQQYNNYPPTFGQGTKLEIKR | 0.21 nM | 3.13 nM | 2.53 nM | 38 nM | 15 nM | 0.13 nM | 0.09 nM | 0.08 nM | 18 nM | 0.00255 s⁻¹ | 144000 M⁻¹ s⁻¹ | 13 nM | 0.00212 s⁻¹ | 158000 M⁻¹ s⁻¹ | 1.3 nM | 0.4 nM | no binding | 32 nM | 0.00498 s⁻¹ | 156000 M⁻¹ s⁻¹ |
| h1A11.4 (antibody, V domains shown, humanized IgG; also called VH.1/VL.2a 1A11) VH: EVQLVESGGGLVQPGGSLRLSCAASGFTFSNFPMAWVRQAPGKGLEWVATISSSDGTTYYRDSVKGRFTISRDNAKNSLYLQMNSLRAEDTAVYYCARGYYNSPFAYWGQGTLVTVSS VL: EIVMTQSPATLSVSPGERATLSCRASEDIYSNLAWYQQKPGQSPRLLIFDTNNLADGVPARFSGSGSGTESTLTISSLQSEDFAVYFCQQYNNYPPTFGQGTKLEIKR | 0.22 nM | 3.61 nM | 3.28 nM | 39 nM | 16 nM | 0.17 nM | 0.09 nM | 0.08 nM |  |  |  |  |  |  | 0.9 nM | 0.3 nM |  |  |  |  |
| h1A11.6 (antibody, V domains shown, humanized IgG; also called VH.1a/VL.1a 1A11) VH: EVQLVESGGGLVQPGGSLRLSCAASGFTFSNFPMAWVRQAPGKGLEWVATISSSDGTTYYRDSVKGRFTISRDNAKSSLYLQMNSLRAEDTAVYYCSRGYYNSPFAYWGQGTLVTVSS VL: DIQMTQSPSSLSASVGDRVTITCRASEDIYSNLAWYQQKPGKSPKLLIFDTNNLADGVPSRFSGSGSGTDSTLTISSLQPEDFATYFCQQYNNYPPTFGQGTKLEIKR | 0.15 nM | 3.74 nM | 1.45 nM | 31 nM | 11.3 nM | 0.13 nM | 0.1 nM | 0.08 nM |  |  |  |  |  |  | 0.8 nM | 0.4 nM |  |  |  |  |
| h1A11.9 (antibody, V domains shown, humanized IgG; also called VH.1b/VL.1 1A11) VH: EVQLVESGGGLVQPGGSLRLSCAASGFTFSNFPMAWVRQAPGKGLEWVATISSSDGTTYYRDSVKGRFTISRDNAKNSLYLQMNSLRAEDTAVYYCSRGYYNSPFAYWGQGTLVTVSS VL: DIQMTQSPSSLSASVGDRVTITCRASEDIYSNLAWYQQKPGKAPKLLIYDTNNLADGVPSRFSGSGSGTDFTLTISSLQPEDFATYYCQQYNNYPPTFGQGTKLEIKR | 0.18 nM | 3.28 nM | 3.18 nM | 34 nM | 13 nM | 0.15 nM | 0.09 nM | 0.07 nM |  |  |  |  |  |  | 0.9 nM | 0.3 nM |  |  |  |  |

The remaining binders from weak to strong by EC50 [1], led by results:

| EC50 [1] | EC50 [2] | Reporter Assay (EC50, nM) [3] | Kd [4] | Kd [5] | EC50 [6] | EC50 [7] | EC50 [8] | Kd [9] | koff [9] | kon [9] | Kd [10] | koff [10] | kon [10] | IC50 [11] | IC50 [12] | binding result [13] | Kd [14] | koff [14] | kon [14] | Binder |
| --- | --- | --- | --- | --- | --- | --- | --- | --- | --- | --- | --- | --- | --- | --- | --- | --- | --- | --- | --- | --- |
| 0.24 nM | 3.51 nM | 2.53 nM | 37 nM | 15 nM | 0.16 nM | 0.08 nM | 0.07 nM |  |  |  |  |  |  | 0.9 nM | 0.2 nM |  |  |  |  | h1A11.3 (antibody, V domains shown, humanized IgG; also called VH.1/VL.1b 1A11) VH: EVQLVESGGGLVQPGGSLRLSCAASGFTFSNFPMAWVRQAPGKGLEWVATISSSDGTTYYRDSVKGRFTISRDNAKNSLYLQMNSLRAEDTAVYYCARGYYNSPFAYWGQGTLVTVSS VL: DIQMTQSPSSLSASVGDRVTITCRASEDIYSNLAWYQQKPGKAPKLLIFDTNNLADGVPSRFSGSGSGTDFTLTISSLQPEDFATYYCQQYNNYPPTFGQGTKLEIKR |
| 0.18 nM | 3.34 nM | 4.24 nM | 24 nM | 11 nM | 0.17 nM | 0.09 nM | 0.06 nM |  |  |  |  |  |  | 0.9 nM | 0.35 nM |  |  |  |  | h1A11.8 (antibody, V domains shown, humanized IgG; also called VH.1a/VL.2a 1A11) VH: EVQLVESGGGLVQPGGSLRLSCAASGFTFSNFPMAWVRQAPGKGLEWVATISSSDGTTYYRDSVKGRFTISRDNAKSSLYLQMNSLRAEDTAVYYCSRGYYNSPFAYWGQGTLVTVSS VL: EIVMTQSPATLSVSPGERATLSCRASEDIYSNLAWYQQKPGQSPRLLIFDTNNLADGVPARFSGSGSGTESTLTISSLQSEDFAVYFCQQYNNYPPTFGQGTKLEIKR |
| 0.18 nM | 3.71 nM | 4.84 nM | 35 nM | 13 nM | 0.14 nM | 0.09 nM | 0.06 nM |  |  |  |  |  |  | 0.9 nM | 0.5 nM |  |  |  |  | h1A11.7 (antibody, V domains shown, humanized IgG; also called VH.1a/VL.1b 1A11) VH: EVQLVESGGGLVQPGGSLRLSCAASGFTFSNFPMAWVRQAPGKGLEWVATISSSDGTTYYRDSVKGRFTISRDNAKSSLYLQMNSLRAEDTAVYYCSRGYYNSPFAYWGQGTLVTVSS VL: DIQMTQSPSSLSASVGDRVTITCRASEDIYSNLAWYQQKPGKAPKLLIFDTNNLADGVPSRFSGSGSGTDFTLTISSLQPEDFATYYCQQYNNYPPTFGQGTKLEIKR |
